According to patent US20240191211A1, “BIOLUMINESCENCE-TRIGGERED PHOTOCATALYTIC LABELING” (Promega Corporation, priority 2022, published 2024):

Biological target: LgBiT-HaloTag
Assay: luminescence saturation binding: VS-HiBiT titrated 200-0 nM against 0.2 nM fusion

Chain of LgBiT-HaloTag (chain, as listed by the source limits assumed): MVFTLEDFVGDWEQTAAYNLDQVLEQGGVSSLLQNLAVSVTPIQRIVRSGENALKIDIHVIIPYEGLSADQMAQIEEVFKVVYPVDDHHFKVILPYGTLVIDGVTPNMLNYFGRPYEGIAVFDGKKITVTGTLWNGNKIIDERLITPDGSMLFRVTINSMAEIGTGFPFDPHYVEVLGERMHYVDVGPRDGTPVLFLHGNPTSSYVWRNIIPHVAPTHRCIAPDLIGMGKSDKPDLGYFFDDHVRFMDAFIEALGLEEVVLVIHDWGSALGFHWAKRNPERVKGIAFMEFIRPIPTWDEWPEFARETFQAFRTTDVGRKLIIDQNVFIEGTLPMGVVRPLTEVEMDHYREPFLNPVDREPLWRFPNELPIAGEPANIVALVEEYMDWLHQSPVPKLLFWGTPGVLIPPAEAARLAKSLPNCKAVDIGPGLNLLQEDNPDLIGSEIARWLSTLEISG

fold complementation affinity (against the VS-HiBiT/HaloTag-LgBiT configuration): 3 fold
B1: VS-HiBiT peptide (peptide)
peptide: VSGWRLFKKIS
modifications: not checked
